Assay results reported in patent publication US10124035B2, “DISC-1 pathway activators in the control of neurogenesis” (Massachusetts Institute of Technology, priority 2008, dated 2018).

Columns and labels:
[1] = tested on: TCF reporter in 293T cells; experiment: TCF reporter activity in DISC1 knockdown 293T cells with Wnt3a conditional medium; type: cell-based; conditions: 16 hours
Method: Primary neural stem cells from E14 brains were infected with control or DISC1 shRNA lentiviruses. 48 hours after to transduction, cells were treated with vehicle or SB-216763 (5 μM) for 16 hours and then pulsed with 10 μM BrdU for 2 hours. Shown is percentage of GFP and BrdU double positive cells to total GFP positive cells (n=3, p<0.05). b. […] 1.5 μg of vector or WT-DISC1 was cotransfected with 0.5 μg control or DISC1 shRNA-2, 0.1 μg TCF reporter, and 10 ng pRL-TK vector into 293T cells. 48 hours after transfection, Wnt3a conditional medium with vehicle, SB-216763, or AR-A104418 was added for another 16 hours.
• Mice. Swiss Webster pregnant female mice were purchased from Taconic (Hudson, N.Y.). • Cell Culture. AHPs were kindly provided by Dr. Gage (Lie, D. C. et al. Wnt signaling to regulates adult hippocampal neurogenesis. Nature 437, 1370-5 (2005)) and cultured under conditions described previously (Palmer, T. D., Takahashi, J. & Gage, F. H. The adult rat hippocampus contains primordial neural stem cells. Mol Cell Neurosci 8, 389-404 (1997)). Primary neural progenitors were isolated from E14 mouse embryos and cultured as described previously (Sanada, K. & Tsai, L. H. G protein betagamma subunits and AGS3 control spindle orientation and asymmetric cell fate of cerebral cortical progenitors. Cell 122, 119-31 (2005)). N2a and 293T cells were cultured in DMEM medium containing 10% FBS, L-glutamine, and penicillin/streptomycin. Wnt3a expressing L cells and untransfected L cells were obtained from ATCC (Manassas, Va.). Wnt3a conditional medium was produced according to the ATCC protocol. To induce AHP differentiation, FGF2 was removed from the culture medium and 1 μM retinoic acid/1% FBS was added to the medium for 4 days. • Reagents. Recombinant Wnt3a protein was obtained from Chemicon (Rosemont, Ill.). FGF2 was obtained from PeproTech (Rocky Hill, N.J.). Recombinant GST-GSK3β was obtained from Active Motif (Carlsbad, Calif.). Recombinant GST-β-catenin and GST-axin were obtained from Millipore (Billerica, Mass.). […]

AHPs = experiment: Immunoblot of β-catenin and cyclin D1 in transduced AHPs; type: cell-based
Source text: (§1) • Mice. Swiss Webster pregnant female mice were purchased from Taconic (Hudson, N.Y.). • Cell Culture. AHPs were kindly provided by Dr. Gage (Lie, D. C. et al. Wnt signaling to regulates adult hippocampal neurogenesis. Nature 437, 1370-5 (2005)) and cultured under conditions described previously (Palmer, T. D., Takahashi, J. & Gage, F. H. The adult rat hippocampus contains primordial neural stem cells. Mol Cell Neurosci 8, 389-404 (1997)). Primary neural progenitors were isolated from E14 mouse embryos and cultured as described previously (Sanada, K. & Tsai, L. H. G protein betagamma subunits and AGS3 control spindle orientation and asymmetric cell fate of cerebral cortical progenitors. Cell 122, 119-31 (2005)). N2a and 293T cells were cultured in DMEM medium containing 10% FBS, L-glutamine, and penicillin/streptomycin. Wnt3a expressing L cells and untransfected L cells were obtained from ATCC (Manassas, Va.). Wnt3a conditional medium was produced according to the ATCC protocol. To induce AHP differentiation, FGF2 was removed from the culture medium and 1 μM retinoic acid/1% FBS was added to the medium for 4 days. • Reagents. Recombinant Wnt3a protein was obtained from Chemicon (Rosemont, Ill.). FGF2 was obtained from PeproTech (Rocky Hill, N.J.). Recombinant GST-GSK3β was obtained from Active Motif (Carlsbad, Calif.). Recombinant GST-β-catenin and GST-axin were obtained from Millipore (Billerica, Mass.). The GSK313 inhibitor, SB-216763, AR-A104418 and His-GSK3β, were obtained from Sigma-Aldrich (Sigma-Aldrich, St. Louis, Mo.). L803-MTS was obtained from Calbiochem (San Diego, Calif.). GST-AKT1 was obtained from Cell Signaling (Beverly, Mass.). GST-CASK-1 (CASK fragment from 316-415aa), GST-CASK-2 (CASK fragment from 777-974aa), and GST-p25 proteins were kindly provided by Dr. B. A. Samuels. Mouse DISC1 peptidel (40-78aa: GYMRSTAGSG IGFLSPAVGMPHPSSAG LTGQQSQHSQS; SEQ ID NO: 1) and Mouse DISC1 peptide 2 (195-238aa, […] GERGEAEGCLPSREAE; SEQ ID NO: 2) were synthesized by Chi Scientific (Maynard, Mass.). • Antibodies. […]

[2] = tested on: neural progenitors in embryonic mouse brains; experiment: In utero electroporation of shRNA into E13 embryonic mouse brains; type: in vivo
Source text: as §1, with “Antibodies. The primary antibodies used in this study were the following: rabbit anti-DISC1 C-terminal antibody, mouse and rabbit anti-GFP antibodies (Invitrogen, Carlsbad, Calif.); affinity purified rabbit anti-DISC1 antibody (Novus, Littleton, Colo.) for immunohistochemistry; mouse anti-FLAG and mouse anti-Actin antibody; mouse anti-GSK3β antibody, mouse anti-β-catenin antibody, mouse anti-pY216 GSK3β antibody, and mouse anti-nestin antibody (BD Biosciences, San Diego, Calif.); rabbit anti-[…] β-catenin antibody, rabbit anti-pS9 GSK3β antibody, and mouse anti-cyclin to D1 antibody (Cell Signaling); mouse anti-Dv12 antibody, mouse anti-HA antibody, mouse anti-GST antibody, mouse anti-ubiquitin antibody, and rabbit anti-β-catenin antibody (Santa Cruz, Santa Cruz, Calif.); mouse Tuj-1 antibody (BABCO, Harrisburg, Pa.); mouse anti-BrdU antibody (DakoCytomation, Glostrup, Denmark); guinea pig anti-doublecortin antibody (Chemicon, Rosemont, Ill.); chicken anti-GFP antibody (Ayes Labs, Tigard, Oreg.); rabbit anti-pS10 Histone H3 antibody (Upstate, Lake Placid, N.Y.). • Constructs. The sequences for shRNAs targeting DISC1 are as follows: control shRNA: 5′-CGGCTGAAACAAGAGTTGG-3′ (SEQ ID NO:3); DISC1 shRNA-1: 5′-GGCAAACACTGTGA AGT GC-3′ (SEQ ID NO:4); DISC1 shRNA-2: 5′-[…]-3′ (SEQ ID NO:5)(Kamiya A. et al. A schizophrenia-associated mutation of DISC1 perturbs cerebral cortex development. Nat. Cell Biol 7, 1167-78 (2005)). DISC1 shRNA-1 recognizes both rat and mouse DISC1.” for “Antibodies.”

GSK3β [3] = molecular target: T1, GSK3β (Homo sapiens, UniProt P49841); experiment: GSK3β in vitro kinase assay (β-catenin/axin phosphorylation, Y216 autophosphorylation); type: biochemical; conditions: for inhibition of GSK3β / inhibition of GSK3β kinase activity by peptides: in vitro kinase assay; for inhibition of GSK3β kinase activity by peptides: dose-response or comparison
T1 construct: GST; purchased Active Motif (Carlsbad, Calif.)
T1 sequence (P49841 whole entry): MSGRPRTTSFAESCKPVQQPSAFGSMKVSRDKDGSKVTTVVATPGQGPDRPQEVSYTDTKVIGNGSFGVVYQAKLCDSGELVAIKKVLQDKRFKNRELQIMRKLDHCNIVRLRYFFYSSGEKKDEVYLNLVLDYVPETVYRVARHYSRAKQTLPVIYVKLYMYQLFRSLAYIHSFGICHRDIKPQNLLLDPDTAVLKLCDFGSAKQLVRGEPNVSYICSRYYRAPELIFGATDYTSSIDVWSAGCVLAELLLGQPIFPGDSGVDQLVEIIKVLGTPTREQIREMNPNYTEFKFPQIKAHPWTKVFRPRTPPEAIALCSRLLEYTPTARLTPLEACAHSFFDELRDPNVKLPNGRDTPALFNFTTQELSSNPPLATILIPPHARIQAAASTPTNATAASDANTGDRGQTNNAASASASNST
Source text: as §1, with “Antibodies. The primary antibodies used in this study were the following: rabbit anti-DISC1 C-terminal antibody, mouse and rabbit anti-GFP antibodies (Invitrogen, Carlsbad, Calif.); affinity purified rabbit anti-DISC1 antibody (Novus, Littleton, Colo.) for immunohistochemistry; mouse anti-FLAG and mouse anti-Actin antibody; mouse anti-GSK3β antibody, mouse anti-β-catenin antibody, mouse anti-pY216 GSK3β antibody, and mouse anti-nestin antibody (BD Biosciences, San Diego, Calif.); rabbit anti-[…] β-catenin antibody, rabbit anti-pS9 GSK3β antibody, and mouse anti-cyclin to D1 antibody (Cell Signaling); mouse anti-Dv12 antibody, mouse anti-HA antibody, mouse anti-GST antibody, mouse anti-ubiquitin antibody, and rabbit anti-β-catenin antibody (Santa Cruz, Santa Cruz, Calif.); mouse Tuj-1 antibody (BABCO, Harrisburg, Pa.); mouse anti-BrdU antibody (DakoCytomation, Glostrup, Denmark); guinea pig anti-doublecortin antibody (Chemicon, Rosemont, Ill.); chicken anti-GFP antibody (Ayes Labs, Tigard, Oreg.); rabbit anti-pS10 Histone H3 antibody (Upstate, Lake Placid, N.Y.). • Constructs. The sequences for shRNAs targeting DISC1 are as follows: control shRNA: 5′-CGGCTGAAACAAGAGTTGG-3′ (SEQ ID NO:3); DISC1 shRNA-1: 5′-GGCAAACACTGTGA AGT GC-3′ (SEQ ID NO:4); DISC1 shRNA-2: 5′-[…]-3′ (SEQ ID NO:5)(Kamiya A. et al. A schizophrenia-associated mutation of DISC1 perturbs cerebral cortex development. Nat. Cell Biol 7, 1167-78 (2005)). DISC1 shRNA-1 recognizes both rat and mouse DISC1.” for “Antibodies.”

GSK3β [4] = molecular target: T1, GSK3β; experiment: GSK3β SPR (surface plasmon resonance) binding assay; conditions: for percent theoretical maximal response (binding to GSK3β): concentration of 25 μM
Method: FIG. 16B is a schematic of overlapping 15-mer peptides that covered peptide 2 and a graph showing the ability of the peptides to bind to GSK3β.
Surface plasmon resonance (SPR) was used to determine whether peptide 2 directly binds to GSK3β. GSK3β SPR binding assays were carried out with peptide 1, peptide 2, the GSK3β inhibitor L803-MTS, and as a negative control, a peptide from the N-type calcium channel, CACNA1B (FIG. 6A). […] To identify the peptide 2 sequences that mediate this interaction with GSK3β, we designed overlapping 15-mer peptides that covered peptide 2 and tested their binding to GSK3β SPR (FIG. 16B).

[5] = electroporated at E13, analyzed 3 days later

**Q.** For `COc1ccc(CNC(=O)Nc2ncc([N+](=O)[O-])s2)cc1` [AR-A014418], which “TCF reporter activity in DISC1 knockdown cells” value [1] is on record?
**A.** The value was “rescued TCF activity in DISC1 knockdown cells to control levels”.

**Q.** And the “TCF reporter activity in DISC1 knockdown cells” value ([1]; listed as AR-A104418)?
**A.** The value was “rescues the TCF activation defect caused by DISC1 knockdown”.

**Q.** For “DISC1 shRNA-2: shRNA targeting human, rat and mouse DISC1, SEQ ID NO:5, in pLentiLox 3.7 vector (GCAGGAGGTCAGCAAGGCCTTG)”, which “reduction of Cyclin D1 levels” value (AHPs) is on record?
**A.** The value was 70%.

**Q.** And the β-catenin levels (AHPs)?
**A.** Its β-catenin levels is 19 % to control.

**Q.** And the BrdU labeling ([2]; BrdU 2 hours prior to collection)?
**A.** The BrdU labeling was 15.9±2.2%.

**Q.** What about the “cell cycle exit index” value ([2]; electroporated E13, BrdU at E15, collected E16) of the same molecule?
**A.** The value was 66.5±13.2%.

**Q.** And the “GFP+Dcx+ cells” value ([2]; electroporated E13, sacrificed E16, SVZ)?
**A.** The value was 42.3±5.8%.

**Q.** What about the “GFP positive cells in the VZ/SVZ” value [2, 5] of the same molecule?
**A.** The value was 10%.

**Q.** And the “GFP positive cells in the cortical plate” value [2, 5]?
**A.** The value was 62%.

**Q.** And the mitotic index ([2]; pH3, electroporated E13, sacrificed E15)?
**A.** The mitotic index was 3.5±0.8%.

**Q.** Which “inhibition of GSK3β” value (GSK3β [3]; at 80 μM) does the source give for “peptide 1: Mouse DISC1 peptide, 40-78aa, SEQ ID NO: 1, synthesized by Chi Scientific (GYMRSTAGSGIGFLSPAVGMPHPSSAGLTGQQSQHSQS; listed as Mus musculus)” here?
**A.** Its value is “did not inhibit GSK3β”.

**Q.** What about the “inhibition of GSK3β kinase activity by peptides” value (GSK3β [3]; no single concentration) of the same molecule?
**A.** Its value is “did not inhibit GSK3β activity”.

**Q.** And the “percent theoretical maximal response (binding to GSK3β)” value (GSK3β [4])?
**A.** The value was 62%.

**Q.** What does the source list for “peptide 2: Mouse DISC1 peptide, 195-238aa, PADIASLPGFQDTFTSSFSFIQLSLGAAGERGEAEGCLPSREAE, SEQ ID NO: 2 (listed as Mus musculus)”?
**A.** inhibition of GSK3β (GSK3β [3]; at 1 μM): did not inhibit GSK3β; inhibition of GSK3β (GSK3β [3]; at 10 μM): inhibited GSK3β; inhibition of GSK3β kinase activity by peptides (GSK3β [3]; no single concentration): inhibited GSK3β more potently than the commercial GSK3β peptide inhibitor, L803-MTS; inhibition of GSK3β kinase activity by peptides (GSK3β [3]; no single concentration, listed as DISC1 peptide 1(195-238aa)): dose-dependent; inhibition of GSK3β kinase activity by peptides (GSK3β [3]; no single concentration, listed as Peptide 195-238): inhibited GSK3β in a dose-dependent manner more potently than the commercial peptide inhibitor, L803-MTS; percent theoretical maximal response (binding to GSK3β) (GSK3β [4]): 197%

**Q.** With “peptide 3: 15-mer peptide that encompasses mDISC1 amino acids 211 to 225 (SFSFIQLSLGAAGER; listed as Mus musculus)” as the molecule, how does the “inhibition of GSK3β kinase activity by peptides” value (GSK3β [3]; no single concentration) read?
**A.** The value was “failed to inhibit GSK3β kinase activity”.

**Q.** And the “percent maximal binding to GSK3β” value (GSK3β [4]; 15-mer peptide)?
**A.** The value was 238%.

**Q.** What about the “binding to GSK3β” value (GSK3β [4]; result in words) of the same molecule?
**A.** The value was “bound to GSK3β”.

B1: DISC1 fragment 221-355: GST-tagged mouse DISC1 protein fragment, amino acids 221-355 (protein, UniProt Q811T9 221-355, looked up, fragment)
chain: AAGERGEAEGCLPSREAEPLHQRPQEMAAEASSSDRPHGDPRHLWTFSLHAAPGLADLAQVTRSSSRQSECGTVSSSSSDTGFSSQDASSAGGRGDQGGGWADAHGWHTLLREWEPMLQDYLLSNRRQLEVTSLI
modifications: GST tag
**Q.** Which “inhibition of GSK3β autophosphorylation (Y216)” value (GSK3β [3]; GST-DISC1 fragments at 2 μM) does the source give for B1 here?
**A.** The value was “started to inhibit GSK3β autophosphorylation”.

**Q.** What about the “inhibition of GSK3β activity by DISC1 fragments” value (GSK3β [3]; no single concentration, dose dependence, rank) of the same molecule?
**A.** Its value is “able to inhibit GSK3 activity”.
